Test results published in US20090275081A1.

How the values were obtained:
[1] = target: carcinoembryonic antigen (CEA) on LS174T-CEA+ human colon carcinoma cells (human) (UniProt P06731); assay: flow cytometry on live LS174T-CEA+ cells, detected with Qdot655SA; percent positive staining
[2] = target: streptavidin agarose beads (ImmunoPure streptavidin coated beads, Pierce) (UniProt P22629); assay: pull-down of 3.5 ug purified protein on streptavidin agarose beads, Western blot with SA HRP
[3] = target: carcinoembryonic antigen (CEA) on LS174T-CEA+ human colon carcinoma cells (human) (UniProt P06731); assay: flow cytometry on live LS174T-CEA+ cells, detected with Alexa Fluor 488 streptavidin; percent positive staining
[4] = target: streptavidin agarose beads (ImmunoPure streptavidin coated beads, Pierce) (UniProt P22629); assay: pull-down on streptavidin agarose beads, Western blot

Chain of UniProt P22629 (P22629 37-163 limits assumed): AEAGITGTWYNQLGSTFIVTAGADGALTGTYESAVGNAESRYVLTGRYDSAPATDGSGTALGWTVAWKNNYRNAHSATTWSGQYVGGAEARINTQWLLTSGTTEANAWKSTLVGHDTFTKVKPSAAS
Chain of UniProt P06731 (P06731 35-702): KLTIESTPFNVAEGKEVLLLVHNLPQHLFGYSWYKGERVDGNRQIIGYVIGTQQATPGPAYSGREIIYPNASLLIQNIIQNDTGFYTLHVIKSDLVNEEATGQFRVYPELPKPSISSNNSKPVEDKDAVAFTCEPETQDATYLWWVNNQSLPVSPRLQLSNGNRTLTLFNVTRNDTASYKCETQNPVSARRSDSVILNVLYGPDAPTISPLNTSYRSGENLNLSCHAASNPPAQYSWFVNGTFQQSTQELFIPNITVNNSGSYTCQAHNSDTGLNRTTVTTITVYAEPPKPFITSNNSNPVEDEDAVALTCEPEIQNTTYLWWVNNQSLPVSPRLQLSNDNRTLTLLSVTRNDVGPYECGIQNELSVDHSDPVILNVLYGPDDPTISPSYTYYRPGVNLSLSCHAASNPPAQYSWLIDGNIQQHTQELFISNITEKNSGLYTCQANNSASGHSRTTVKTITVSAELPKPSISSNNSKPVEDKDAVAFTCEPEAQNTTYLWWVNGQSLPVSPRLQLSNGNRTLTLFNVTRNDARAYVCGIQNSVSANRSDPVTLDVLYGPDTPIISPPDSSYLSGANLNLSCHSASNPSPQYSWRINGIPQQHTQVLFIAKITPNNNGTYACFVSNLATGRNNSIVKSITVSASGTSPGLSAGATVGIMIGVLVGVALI

| Substance | LS174T binding (%), Qdot streptavidin [1] [%] | Binding with streptavidin agarose (%) [2] [%] | LS174T binding (%), Streptavidin Alexa [3] [%] | percent unbound [4] [%] |
| --- | --- | --- | --- | --- |
| Db-BD123 (biotinylated anti-CEA T84.66 diabody fused to the 123 aa biotin acceptor domain of P. shermanii) | 17.7 | 95 | 11.7 |  |
| Db-BP15-His (biotinylated anti-CEA T84.66 diabody with 15 aa biotin acceptor peptide followed by 6xHis tag) | 41 | 90 | 56 | 10 |
